Source: US20040176301A1 (CYCLACEL, published 2004)
Ends that are not written are not given here.

biological target: CDK2/cyclin A (UniProt P24941 1-298; P20248 1-432); assay: cell-based or functional assay

Row | Binder | Relative activity, Kinase Inhibition (CDK2/cyclin A kinase assay, pRb substrate, [ATP] = 100 µM)
1 | H-HAKRRLIL-NH2 [H-His-Ala-Lys-Arg-Arg-Leu-Ile-Leu-NH2] | 0.3 relative to H-His-Ala-Lys-Arg-Arg-Leu-Ile-Phe-NH2 (=1)

biological target: CDK4/Cyclin D1 complex (UniProt P11802 1-303; P24385 1-295); assay: cell-based or functional assay
Sequence (P11802 other isoform, or with tags, fused parts or gaps, chain 1 of 2): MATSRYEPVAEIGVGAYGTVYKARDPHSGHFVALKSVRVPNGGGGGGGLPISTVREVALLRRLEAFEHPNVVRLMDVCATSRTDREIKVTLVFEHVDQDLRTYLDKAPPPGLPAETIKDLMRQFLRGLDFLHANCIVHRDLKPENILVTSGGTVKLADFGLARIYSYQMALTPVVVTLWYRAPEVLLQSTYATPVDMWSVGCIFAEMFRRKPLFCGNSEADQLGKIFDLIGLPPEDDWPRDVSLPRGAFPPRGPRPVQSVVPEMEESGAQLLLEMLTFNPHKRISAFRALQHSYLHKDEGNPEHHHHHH
Sequence (P24385 whole entry, chain 2 of 2): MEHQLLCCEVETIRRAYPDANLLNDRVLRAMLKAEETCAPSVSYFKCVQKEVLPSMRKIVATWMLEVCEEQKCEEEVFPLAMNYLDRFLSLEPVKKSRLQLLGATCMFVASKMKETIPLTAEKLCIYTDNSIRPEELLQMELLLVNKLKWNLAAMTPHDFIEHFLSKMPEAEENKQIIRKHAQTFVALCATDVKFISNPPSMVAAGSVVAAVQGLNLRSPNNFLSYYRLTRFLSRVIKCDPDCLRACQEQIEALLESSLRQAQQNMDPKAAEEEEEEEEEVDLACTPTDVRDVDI

Row | Binder | % Inhibition, cyclin D1/CDK4 kinase | IC50, cyclin D1/CDK4 kinase, GST-pRb
2 | KRRLIFSK-NH2 [KRRLIFSK-NH2] | 20% | –
3 | DFYHSKRRL-NH2 [DFYHSKRRL-NH2] | 10% | –
4 | YHSKR-NH2 [YHSKR-NH2] | 10% | –
5 | SKRRLIF-NH2 [SKRRLIF-NH2] | 72% | 54 µM
6 | YHSKRRLIFS-NH2 [YHSKRRLIFS-NH2] | 70% | 20 µM
7 | YHSKRRL-NH2 [YHSKRRL-NH2] | 10% | –
8 | DFYHSKRRAIFS-NH2 [DFYHSKRRAIFS-NH2] | 30% | –
9 | DFYHSKRRLIAS-NH2 [DFYHSKRRLIAS-NH2] | 35% | –
10 | FYHSKRRLIF-NH2 [p21 (150-159) FYHSKRRLIF-NH2] | 70% | –
11 | YHSKRRLI-NH2 [YHSKRRLI-NH2] | 15% | –
12 | FYHSKRR-NH2 [FYHSKRR-NH2] | 20% | –
13 | DFYHSKARLIFS-NH2 [DFYHSKARLIFS-NH2] | 30% | –
14 | HSKRRLIFS-NH2 [HSKRRLIFS-NH2] | 65% | 32 µM
15 | DFAHSKRRLIFS-NH2 [DFAHSKRRLIFS-NH2] | 56% | 121 µM
16 | TSMTDFYHSKRR-NH2 [TSMTDFYHSKRR-NH2] | 30% | –
17 | FYHSKRRL-NH2 [FYHSKRRL-NH2] | 20% | –
18 | DFYASKRRLIFS-NH2 [DFYASKRRLIFS-NH2] | 60% | 73 µM
19 | DFYHSKRALIFS-NH2 [DFYHSKRALIFS-NH2] | 30% | –
20 | SMTDFYHSKRRL-NH2 [SMTDFYHSKRRL-NH2] | 18% | –
21 | AFYHSKRRLIFS-NH2 [AFYHSKRRLIFS-NH2] | 72% | 22 µM

Row | Binder | % Inhibition, cyclin D1/CDK4 kinase | IC50, cyclin D1/CDK4 kinase, GST-pRb
22 | HSKRRLI-NH2 [HSKRRLI-NH2] | 10% | –
23 | DAYHSKRRLIFS-NH2 [DAYHSKRRLIFS-NH2] | 76% | 37 µM
24 | FYHSKRRLIFS-NH2 [FYHSKRRLIFS-NH2] | 70% | 22 µM
25 | SKRRLIFSKRKP-NH2 [SKRRLIFSKRKP-NH2] | 40% | –
26 | DFYHSKRRLAFS-NH2 [DFYHSKRRLAFS-NH2] | 61% | 53 µM
27 | DFYHSKRRLIFA-NH2 [DFYHSKRRLIFA-NH2] | 60% | 40 µM
28 | DFYHSKRR-NH2 [DFYHSKRR-NH2] | 10% | –
29 | FYHSKRRLI-NH2 [FYHSKRRLI-NH2] | 20% | –
30 | YHSKRR-NH2 [YHSKRR-NH2] | 10% | –
31 | FYHSKRRLIFSK-NH2 [FYHSKRRLIFSK-NH2] | 70% | 41 µM
32 | DFYHSKRRLI-NH2 [DFYHSKRRLI-NH2] | 20% | –
33 | FYHSKR-NH2 [FYHSKR-NH2] | 10% | –
34 | YHSKRRLIFSKR-NH2 [YHSKRRLIFSKR-NH2] | 60% | 45 µM
35 | DFYHSARRLIFS-NH2 [DFYHSARRLIFS-NH2] | 50% | 200 µM
36 | YHSKRRLIF-NH2 [p21 (151-159) YHSKRRLIF-NH2] | 70% | –
37 | HSKRRLIFSKRK-NH2 [HSKRRLIFSKRK-NH2] | 80% | 34 µM
38 | TDFYHSKRRLIF-NH2 [p21 (148-159) TDFYHSKRRLIF-NH2] | 72% | –
39 | DFYHSK-NH2 [DFYHSK-NH2] | 10% | –
40 | MTDFYHSKRRLI-NH2 [MTDFYHSKRRLI-NH2] | 11% | –
41 | H-KRRLIF-NH2 [H-Lys-Arg-Arg-Leu-Ile-Phe-NH2] | 72% | > 200 µM

biological target: T1, CDK2/Cyclin E complex (UniProt P24941 1-298; P24864 1-410); assay: cell-based or functional assay

Row | Binder | % Inhibition, cyclin E/CDK2 kinase | IC50, cyclin E/CDK2 kinase, GST-pRb
42 | KRRLIFSK-NH2 [KRRLIFSK-NH2] | 60% | > 200 µM
43 | DFYHSKRRL-NH2 [DFYHSKRRL-NH2] | 50% | 200 µM
44 | YHSKR-NH2 [YHSKR-NH2] | 25% | –
45 | SKRRLIF-NH2 [SKRRLIF-NH2] | 80% | 7.7 µM
46 | YHSKRRLIFS-NH2 [YHSKRRLIFS-NH2] | 80% | 7.3 µM
47 | YHSKRRL-NH2 [YHSKRRL-NH2] | 30% | > 200 µM
48 | DFYHSKRRAIFS-NH2 [DFYHSKRRAIFS-NH2] | 30% | –
49 | DFYHSKRRLIAS-NH2 [DFYHSKRRLIAS-NH2] | 20% | –
50 | FYHSKRRLIF-NH2 [p21 (150-159) FYHSKRRLIF-NH2] | 80% | –
51 | YHSKRRLI-NH2 [YHSKRRLI-NH2] | 45% | > 200 µM
52 | FYHSKRR-NH2 [FYHSKRR-NH2] | 45% | > 200 µM
53 | DFYHSKARLIFS-NH2 [DFYHSKARLIFS-NH2] | 25% | –
54 | HSKRRLIFS-NH2 [HSKRRLIFS-NH2] | 80% | 3.4 µM
55 | DFAHSKRRLIFS-NH2 [DFAHSKRRLIFS-NH2] | 80% | 5.3 µM
56 | TSMTDFYHSKRR-NH2 [TSMTDFYHSKRR-NH2] | 35% | –
57 | FYHSKRRL-NH2 [FYHSKRRL-NH2] | 48% | > 200 µM
58 | DFYASKRRLIFS-NH2 [DFYASKRRLIFS-NH2] | 80% | 5.1 µM
59 | DFYHSKRALIFS-NH2 [DFYHSKRALIFS-NH2] | 70% | 30 µM
60 | SMTDFYHSKRRL-NH2 [SMTDFYHSKRRL-NH2] | 40% | –
61 | AFYHSKRRLIFS-NH2 [AFYHSKRRLIFS-NH2] | 70% | 11 µM
62 | HSKRRLI-NH2 [HSKRRLI-NH2] | 35% | –

Row | Binder | % Inhibition, cyclin E/CDK2 kinase | IC50, cyclin E/CDK2 kinase, GST-pRb
63 | DAYHSKRRLIFS-NH2 [DAYHSKRRLIFS-NH2] | 85% | 5.9 µM
64 | FYHSKRRLIFS-NH2 [FYHSKRRLIFS-NH2] | 80% | 6.8 µM
65 | SKRRLIFSKRKP-NH2 [SKRRLIFSKRKP-NH2] | 70% | 46 µM
66 | DFYHSKRRLAFS-NH2 [DFYHSKRRLAFS-NH2] | 80% | 14 µM
67 | DFYHSKRRLIFA-NH2 [DFYHSKRRLIFA-NH2] | 70% | 5.4 µM
68 | DFYHSKRR-NH2 [DFYHSKRR-NH2] | 40% | –
69 | FYHSKRRLI-NH2 [FYHSKRRLI-NH2] | 45% | –
70 | YHSKRR-NH2 [YHSKRR-NH2] | 40% | –
71 | FYHSKRRLIFSK-NH2 [FYHSKRRLIFSK-NH2] | 70% | 26 µM
72 | DFYHSKRRLI-NH2 [DFYHSKRRLI-NH2] | 35% | –
73 | FYHSKR-NH2 [FYHSKR-NH2] | 20% | –
74 | DFYHSKR-NH2 [DFYHSKR-NH2] | 50% | 200 µM
75 | YHSKRRLIFSKR-NH2 [YHSKRRLIFSKR-NH2] | 80% | 17.6 µM
76 | DFYHSARRLIFS-NH2 [DFYHSARRLIFS-NH2] | 80% | 12.9 µM
77 | YHSKRRLIF-NH2 [p21 (151-159) YHSKRRLIF-NH2] | 80% | 7 µM
78 | HSKRRLIFSKRK-NH2 [HSKRRLIFSKRK-NH2] | 90% | 8.7 µM
79 | TDFYHSKRRLIF-NH2 [p21 (148-159) TDFYHSKRRLIF-NH2] | 85% | 2.2 µM
80 | HSKRRL-NH2 [HSKRRL-NH2] | 45% | > 200 µM
81 | DFYHSK-NH2 [DFYHSK-NH2] | 45% | 200 µM
82 | MTDFYHSKRRLI-NH2 [MTDFYHSKRRLI-NH2] | 35% | –
83 | H-KRRLIF-NH2 [H-Lys-Arg-Arg-Leu-Ile-Phe-NH2] | 80% | 1.1 µM

biological target: T1, CDK2/Cyclin E complex; assay: cell-based or functional assay; remark: another data set of the same source

Row | Binder | % Inhibition, cyclin E/CDK2 kinase | IC50, cyclin E/CDK2 kinase
84 | HAKRRLFG-NH2 [P21 C-terminus (S153A) LFG HAKRRLFG-NH2] | 82% | 0.9 µM
